According to patent US20260234247A1 (published 2026):
Positions count from the first letter of the chain named. One block for each binder: values may come before it.

Columns and labels:
human LILRA2 = biological target: T1, human LILRA2 (human, UniProt Q8N149 24-449); assay: ELISA, antibody at 200 nM, OD450; + = 2-fold over ISO
T1 construct: Bought protein; also called hLILRA2
Experimental: (§1) To further confirm binding affinity, selected clones were assayed in ELISA or FACS in a range of testing concentrations.

human LILRA5 = biological target: T2, human LILRA5 (human, UniProt A6NI73 42-268, limits assumed); assay: as above
T2 construct: Bought protein; also called hLILRA5
T2 sequence (A6NI73 42-268 limits assumed): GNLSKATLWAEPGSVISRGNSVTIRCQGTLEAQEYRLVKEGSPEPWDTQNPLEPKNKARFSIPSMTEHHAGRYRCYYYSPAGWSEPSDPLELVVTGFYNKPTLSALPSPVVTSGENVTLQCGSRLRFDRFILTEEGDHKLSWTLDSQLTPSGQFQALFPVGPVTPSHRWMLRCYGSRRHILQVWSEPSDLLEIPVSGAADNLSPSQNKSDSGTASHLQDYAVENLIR
Experimental: as §1

human LILRA1 = biological target: T3, human LILRA1 (human, UniProt O75019 17-461, limits assumed); assay: as above
T3 construct: Bought protein; also called hLILRA1
T3 sequence (O75019 17-461 limits assumed): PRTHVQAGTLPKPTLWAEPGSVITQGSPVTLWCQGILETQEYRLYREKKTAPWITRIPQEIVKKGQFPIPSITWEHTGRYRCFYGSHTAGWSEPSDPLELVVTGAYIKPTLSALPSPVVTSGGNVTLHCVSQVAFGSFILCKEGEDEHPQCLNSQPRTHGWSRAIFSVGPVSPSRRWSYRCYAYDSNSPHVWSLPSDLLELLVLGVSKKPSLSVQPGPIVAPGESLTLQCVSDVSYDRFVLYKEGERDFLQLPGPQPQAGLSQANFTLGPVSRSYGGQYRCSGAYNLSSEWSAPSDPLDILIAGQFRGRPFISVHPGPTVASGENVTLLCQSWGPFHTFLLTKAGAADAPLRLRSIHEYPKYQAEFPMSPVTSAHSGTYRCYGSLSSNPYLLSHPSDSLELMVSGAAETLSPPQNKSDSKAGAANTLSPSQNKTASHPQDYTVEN
Experimental: as §1

human LILRA3 = biological target: T4, human LILRA3 (human, UniProt Q8N6C8 24-439); assay: as above
T4 construct: Bought protein; also called hLILRA3
T4 sequence (Q8N6C8 24-439 limits assumed): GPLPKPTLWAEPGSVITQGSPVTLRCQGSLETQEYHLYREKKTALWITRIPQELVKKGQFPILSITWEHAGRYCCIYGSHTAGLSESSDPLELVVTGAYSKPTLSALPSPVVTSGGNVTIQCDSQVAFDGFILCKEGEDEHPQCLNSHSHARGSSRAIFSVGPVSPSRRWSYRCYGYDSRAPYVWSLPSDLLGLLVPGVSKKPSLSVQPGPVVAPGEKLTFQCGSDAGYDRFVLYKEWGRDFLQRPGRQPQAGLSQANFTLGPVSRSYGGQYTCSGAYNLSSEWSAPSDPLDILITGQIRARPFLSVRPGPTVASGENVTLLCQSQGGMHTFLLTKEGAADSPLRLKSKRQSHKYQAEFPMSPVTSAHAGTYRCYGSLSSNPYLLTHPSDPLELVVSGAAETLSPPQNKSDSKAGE
Experimental: as §1

human LILRB4 = biological target: T5, human LILRB4 (human, UniProt Q8NHJ6 22-259); assay: as above
T5 construct: Bought protein; also called hLILRB4
Experimental: as §1

human LILRA4 = biological target: T6, human LILRA4 (human, UniProt P59901 24-446); assay: as above
T6 construct: Bought protein; also called hLILRA4
T6 sequence (P59901 24-446 limits assumed): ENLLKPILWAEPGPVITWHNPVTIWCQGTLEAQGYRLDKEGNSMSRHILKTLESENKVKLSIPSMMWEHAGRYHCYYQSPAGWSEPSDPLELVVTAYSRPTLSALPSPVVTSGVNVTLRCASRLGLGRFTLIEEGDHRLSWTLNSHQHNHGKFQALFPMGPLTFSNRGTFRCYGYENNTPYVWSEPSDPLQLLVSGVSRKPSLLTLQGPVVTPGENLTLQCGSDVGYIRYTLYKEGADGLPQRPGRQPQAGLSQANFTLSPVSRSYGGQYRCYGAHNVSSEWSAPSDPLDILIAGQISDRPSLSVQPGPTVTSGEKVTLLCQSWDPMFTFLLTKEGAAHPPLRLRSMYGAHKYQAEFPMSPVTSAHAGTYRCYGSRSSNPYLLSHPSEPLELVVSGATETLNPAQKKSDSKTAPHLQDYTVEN
Experimental: as §1

human LILRB5 = biological target: T7, human LILRB5 (human, UniProt O75023 24-458); assay: as above
T7 construct: Bought protein; also called hLILRB5
T7 sequence (O75023 24-458 limits assumed): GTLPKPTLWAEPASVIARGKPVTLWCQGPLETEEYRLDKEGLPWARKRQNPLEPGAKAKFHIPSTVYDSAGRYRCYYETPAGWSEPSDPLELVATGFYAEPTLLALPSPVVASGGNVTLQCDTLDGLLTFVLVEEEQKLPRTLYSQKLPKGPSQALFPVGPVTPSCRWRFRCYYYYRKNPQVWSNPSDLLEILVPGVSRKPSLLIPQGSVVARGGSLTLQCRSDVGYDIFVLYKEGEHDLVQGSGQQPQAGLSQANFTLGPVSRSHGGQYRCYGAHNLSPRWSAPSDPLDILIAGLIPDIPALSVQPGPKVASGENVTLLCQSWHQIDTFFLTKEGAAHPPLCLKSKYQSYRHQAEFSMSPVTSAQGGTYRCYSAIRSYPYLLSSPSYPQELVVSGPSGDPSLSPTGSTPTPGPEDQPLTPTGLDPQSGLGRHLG
Experimental: as §1

[1] = biological target: T8, human LILRA2 on CHOK1-human LILRA2 cell line (human, UniProt Q8N149 24-483); assay: flow cytometry on CHOK1-human LILRA2 cell line (FIG. 2A)
T8 construct: whole, on cells
T8 sequence (Q8N149 24-483): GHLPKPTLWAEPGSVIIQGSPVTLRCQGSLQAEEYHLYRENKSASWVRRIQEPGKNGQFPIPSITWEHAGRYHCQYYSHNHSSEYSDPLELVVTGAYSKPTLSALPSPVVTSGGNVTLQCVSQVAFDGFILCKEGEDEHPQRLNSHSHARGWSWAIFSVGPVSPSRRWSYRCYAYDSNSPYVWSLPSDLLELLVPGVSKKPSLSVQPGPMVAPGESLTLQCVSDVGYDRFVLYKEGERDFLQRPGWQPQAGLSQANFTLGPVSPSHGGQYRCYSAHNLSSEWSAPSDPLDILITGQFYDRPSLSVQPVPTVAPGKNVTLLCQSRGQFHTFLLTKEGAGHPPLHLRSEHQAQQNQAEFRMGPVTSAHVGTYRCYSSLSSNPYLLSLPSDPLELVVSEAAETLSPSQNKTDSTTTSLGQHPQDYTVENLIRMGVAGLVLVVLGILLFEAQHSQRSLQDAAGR

T1 sequence (Q8N149 24-449 limits assumed): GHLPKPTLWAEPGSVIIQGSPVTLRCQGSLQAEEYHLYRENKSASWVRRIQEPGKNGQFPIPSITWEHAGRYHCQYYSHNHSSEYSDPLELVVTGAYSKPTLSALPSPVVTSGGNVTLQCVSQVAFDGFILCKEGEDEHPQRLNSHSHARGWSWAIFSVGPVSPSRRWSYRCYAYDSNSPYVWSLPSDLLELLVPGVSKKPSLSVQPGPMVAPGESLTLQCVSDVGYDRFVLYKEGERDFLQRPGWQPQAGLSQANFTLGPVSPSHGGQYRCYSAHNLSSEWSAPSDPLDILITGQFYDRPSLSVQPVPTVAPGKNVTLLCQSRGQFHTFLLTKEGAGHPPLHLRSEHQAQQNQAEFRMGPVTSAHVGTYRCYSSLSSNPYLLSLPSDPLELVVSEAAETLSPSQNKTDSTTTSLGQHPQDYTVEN

- binding result (human LILRA2): binds
B1: LK-RB2-10 (antibody, human IgG4 S228P, kappa, V domains shown)
VH: EVMLVESGGDLVKPGGSLKLSCAASGFTFSANTVSWLRRTPERRLEWVATISGGSDNTYCPDSVKGRFTISRDNARDTLYLQMSSLTSEDTALYFCARHYYDGPNWYFDVWGPGTTVTVSS
VL: DIVMTQSQKFMSSTGGDRVTITCKASQNVDTAVAWYQQKPGQSPKLLIYSASNRYIGVPDRFKGSGSGTDFSLTITNIQSEDLAEYFCQQYSSYPLTFGAGTKLELKR

- binding result (human LILRA5): binds
- binding result (human LILRA1): binds
- binding result (human LILRA3): binds
- binding result (human LILRB4): binds
B2: LK-RB2-8 (antibody, human IgG4 S228P, kappa, V domains shown)
VH: QIQLVQSGPELKKPGETVKISCKASGYSFASYGMGWVKQAPGKGLKWLGWINTHSGVPTYADDFKGRFAFSLETSASTAYLQINNLKNEDTATYFCAHYGRPWFPYWGQGTLVTVSA
VL: DIQMTQSPASLSASVGETVTITCRTSENIYSYLAWYQQKQGKSPQLLVYNAKSLAEGVPSRFSGSGSGTQFSLRINSLQPEDFGTYYCQQHYETPLTFGAGTKLELKR

- binding result (human LILRA4): binds
- binding result (human LILRB5): binds
B3: LK-RB2-16 (antibody, human IgG4 S228P, kappa, V domains shown)
VH: B2 VH with S28T, A30T, S31T, G42E, L48M, H54N, V57A, A61G, P105A
VL: B2 VL with T25A, Q37H, K42E, S53T, R74K, T85S, Q90H, E93N, T94I

- binding result [1]: no binding
B4: hz73D1.v1 (antibody, human IgG4 S228P, kappa, V domains shown)
VH: QVQLVQSGAEVKKPGASVKVSCKASGYTFTDYYINWVRQAPGQGLEWMGNVNPNDGGTTYNQKFKGRVTMTTDTSTSTAYMELRSLRSDDTAVYYCARREIYFYGTIYYYAMDYWGQGTLVTVSS
VL: DIQLTQSPSFLSASVGDRVTITCRASESVDYYGNSFMYWYQQKPGKAPKLLIYFASNLESGVPSRFSGSGSGTEFTLTISSLQPEDFATYYCQQNNEDPWTFGGGTKVEIKR
